The source of these data is the supplement of paper PMC7877785.

± gives the uncertainty stated by the source.

This series is described as follows: self-splicing fitness, log relative to wild type (ln ratio); higher = more splicing; Tetrahymena group I intron in knt gene, E. coli kanamycin selection, DiMSum; sequences stand for … in CUCUCU…GGAGGGAAAAGUUAUCAGGCAUGCACCUGGUAGCUAGUCUUUAAACCAAUAGAUUGCAUCGGUUUAAAAGGCAAGACCGUCAAAUUGCGGGAAAGGGGUCAACAGCCGUUCAGUACCAAGUCUCAGGGGAAACUUUGAGAUGGCCUUGCAAAGGGUAUGGUAAUAAGCUGACGGACAUGGUCCUAACCACGCAGCCAAGUCCUAAGUCAACAGAUCUUCUGUUGAUAUGGAUGCAGUUCACAGACUAAAUGUCGGUCGGGGAAGAUGUAUUCUUCUCAUAAGAUAUAGUCGGACCUCUCCUUAAUGGGAGCUAGCGGAUGAAGUGAUGCAACACUGGAGCCGCUGGGAACUAAUUUGUAUGCGAAAGUAUAUUGAUUAGUUUUGGAGUACUCGUGGUCG
The procedure, abridged:
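Six replicate transformations of E. coli BL21(DE3) with a pET-22b(+) library were grown overnight at 37°C or 30°C. The library randomised all eight P1ex-region intron nucleotides, the intron lying in the knt kanamycin-resistance gene, and plates were LB agar with or without 25 μg/mL kanamycin plus 100 μg/mL carbenicillin, 50 μM IPTG and 0.2% rhamnose. Pooled colonies were amplicon-sequenced on an Illumina HiSeq 2500, and fitness is the DiMSum error-weighted combination of wild-type-normalised replicate fold changes, kanamycin versus none.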

For the sequence UAGCAGCAAUAUUACGACAC, under “37 °C”, the “self-splicing fitness (ln)” value was -2.15 ± 0.33. Consider ACCGAGCAAUAUUACGAAAU, for which the “self-splicing fitness (ln)” value (30 °C) is -2.68 ± 0.27 and the “self-splicing fitness (ln)” value (37 °C) is -2.76 ± 0.34.

Consider UUCGAGCAAUAUUACGAGGA, for which the “self-splicing fitness (ln)” value (30 °C) was -1.87 ± 0.27 and the “self-splicing fitness (ln)” value (37 °C) is -2.76 ± 0.44. The corresponding values for UGCUAGCAAUAUUACGAUAU are -2.3 ± 0.23 and -2.25 ± 0.21. Turning to CGCCAGCAAUAUUACGGCUC, the “self-splicing fitness (ln)” value was -0.72 ± 0.22 (30 °C) and -0.0823 ± 0.23 (37 °C). With AAGGAGCAAUAUUACGGACG, for the setting “37 °C”, the “self-splicing fitness (ln)” value is -0.216 ± 0.26. On to ACGGAGCAAUAUUACGCGAG, for which the “self-splicing fitness (ln)” value was -2.86 ± 0.13 (30 °C) and -1.35 ± 0.13 (37 °C).

For the sequence ACCAAGCAAUAUUACGAGUG, the “self-splicing fitness (ln)” value (30 °C) is -2.09 ± 0.052 and the “self-splicing fitness (ln)” value (37 °C) is -1.14 ± 0.062. For AUUCAGCAAUAUUACGCUGU the same measures were -2.87 ± 0.21 and -1.09 ± 0.18. The corresponding values for ACGUAGCAAUAUUACGCGGA are -2.05 ± 0.18 and -0.895 ± 0.11. As for GGGAAGCAAUAUUACGCUCA, the “self-splicing fitness (ln)” value (37 °C) was -0.0289 ± 0.38. As to UGUCAGCAAUAUUACGAGUU, the “self-splicing fitness (ln)” value reads like this: (30 °C) -1.33 ± 0.14; (37 °C) -1.44 ± 0.2. For UCGAAGCAAUAUUACGGUAG the same measures were -1.4 ± 0.1 and -1.61 ± 0.11. For GGAUAGCAAUAUUACGAACC the same measures were -2.49 ± 0.36 and -1.77 ± 0.28. For GGAAAGCAAUAUUACGAUAU the same measures were -0.885 ± 0.076 and -0.58 ± 0.1. As for AUGUAGCAAUAUUACGAUCU, the “self-splicing fitness (ln)” value is, setting by setting: (30 °C) -0.222 ± 0.056; (37 °C) 0.524 ± 0.073. For AAGGAGCAAUAUUACGGCCG, the “self-splicing fitness (ln)” value (30 °C) is -1.99 ± 0.45. As for UUUUAGCAAUAUUACGACAG, the “self-splicing fitness (ln)” value was -0.158 ± 0.23 (30 °C) and 0.172 ± 0.27 (37 °C). For UCGCAGCAAUAUUACGCGUU the same measures were -4.2 ± 0.27 and -2.38 ± 0.13. For CGCUAGCAAUAUUACGUUCA, the “self-splicing fitness (ln)” value is -1.39 ± 0.12 (30 °C) and -1.68 ± 0.14 (37 °C).

Turning to UACCAGCAAUAUUACGCGCC, the “self-splicing fitness (ln)” value is -1.46 ± 0.12 (30 °C) and -1.1 ± 0.2 (37 °C).

For the sequence UUGUAGCAAUAUUACGUACG, the “self-splicing fitness (ln)” value reads like this: (30 °C) -1.24 ± 0.12; (37 °C) -0.138 ± 0.16. The corresponding values for AGUCAGCAAUAUUACGACUU are -2.13 ± 0.11 and -1.96 ± 0.19. The corresponding values for GAUUAGCAAUAUUACGGCUU are -0.0112 ± 0.094 and -0.0247 ± 0.11. For GUUUAGCAAUAUUACGGUUG the same measures were -3.13 ± 0.36 and -1.47 ± 0.28. GCUUAGCAAUAUUACGUUCU: the “self-splicing fitness (ln)” value (30 °C) was -1.03 ± 0.095 and the “self-splicing fitness (ln)” value (37 °C) was found to be 0.0827 ± 0.1. The corresponding values for GUUUAGCAAUAUUACGCUGG are -2.55 ± 0.25 and -0.944 ± 0.26. For GGAAAGCAAUAUUACGGACU the same measures were -1.51 ± 0.27 and -0.961 ± 0.28.

In the case of CUUCAGCAAUAUUACGCUCG, the “self-splicing fitness (ln)” value by setting is: (30 °C) -2.42 ± 0.15; (37 °C) -0.933 ± 0.26. For UACGAGCAAUAUUACGGAGA the same measures were -3.09 ± 0.33 and -2.84 ± 0.45. The corresponding values for GCUCAGCAAUAUUACGCAAC are -1.28 ± 0.16 and -1.07 ± 0.2. The corresponding values for GAUUAGCAAUAUUACGGGUG are -1.52 ± 0.097 and -0.58 ± 0.12.

Take ACUGAGCAAUAUUACGUCCC: the “self-splicing fitness (ln)” value (30 °C) is -3.06 ± 0.39. Consider ACGCAGCAAUAUUACGCCUA, for which the “self-splicing fitness (ln)” value reads like this: (30 °C) -0.946 ± 0.088; (37 °C) 0.0129 ± 0.093. For AUCAAGCAAUAUUACGCGCA, the “self-splicing fitness (ln)” value is, setting by setting: (30 °C) -0.314 ± 0.073; (37 °C) 0.448 ± 0.098. For AGAUAGCAAUAUUACGGACG the same measures were -0.861 ± 0.15 and -0.892 ± 0.15.

Consider UACGAGCAAUAUUACGCAAC, for which the “self-splicing fitness (ln)” value was -2.85 ± 0.22 (30 °C) and -2.19 ± 0.26 (37 °C). The corresponding values for CCUGAGCAAUAUUACGCUCG are -2.14 ± 0.43 and -1.7 ± 0.41. The corresponding values for CUUCAGCAAUAUUACGGUAA are -1.67 ± 0.23 and -1.88 ± 0.17.
